According to paper PMC9240080 (Nature Communications, 2022):

Tests used:
Assay in all cases: ELISA
Conditions in all cases: both partners purified
[1] = biological target: BM48-31-CoV RBD-His8-SpyTag003 (Bat coronavirus BM48-31, heterogeneous N-linked glycosylation)
[2] = biological target: SHC014-CoV RBD-His8-SpyTag003 (Bat SARS-like coronavirus RsSHC014, heterogeneous N-linked glycosylation)
[3] = biological target: pangolin17 (pang17)-CoV RBD-His8-SpyTag003 (Pangolin coronavirus pang17, heterogeneous N-linked glycosylation)
[4] = biological target: Yunnan2011 (Yun11)-CoV RBD-His8-SpyTag003 (Bat coronavirus Cp/Yunnan2011, heterogeneous N-linked glycosylation)
[5] = biological target: BtKY72-CoV RBD-His8-SpyTag003 (Bat coronavirus BtKY72, heterogeneous N-linked glycosylation)
[6] = biological target: RmYN02-CoV RBD-His8-SpyTag003 (Bat coronavirus RmYN02, heterogeneous N-linked glycosylation)
[7] = biological target: Rf1-CoV RBD-His8-SpyTag003 (Bat SARS-like coronavirus Rf1, heterogeneous N-linked glycosylation)
[8] = biological target: Rs4081-CoV RBD-His8-SpyTag003 (Bat SARS-like coronavirus Rs4081, heterogeneous N-linked glycosylation)
[9] = biological target: RaTG13-CoV RBD-His8-SpyTag003 (Bat coronavirus RaTG13, heterogeneous N-linked glycosylation)
[10] = biological target: WIV1-CoV RBD-His8-SpyTag003 (Bat SARS-like coronavirus WIV1, heterogeneous N-linked glycosylation)

Measured: binding result

B1: EY6A (antibody, V domains shown)
VH: EVQLVESGGGVVQPGRSLRLSCAASAFTFSSYDMHWVRQAPGKGLEWVAVISYDGSNKYYADSVKGRFTISRDNSKNTLYLQMNSLRAEDTAVYYCAKDGGKLWVYYFDYWGQGTLVTVSS
VL: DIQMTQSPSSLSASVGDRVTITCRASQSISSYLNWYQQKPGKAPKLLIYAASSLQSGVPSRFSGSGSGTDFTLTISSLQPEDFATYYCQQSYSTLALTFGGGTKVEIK
binds: [1] | [2] | [3] | [4] | [5] | [6] | [7] | [8] | [9] | [10]
